IC50 data for two molecules are collected here from patent US7271238.

This test has as its target amylin receptors (rat basal forebrain membranes, containing the nucleus accumbens and surrounding regions) (rat). Put plainly: competition radioligand binding, displacement of 125I-rat amylin from rat basal forebrain membranes. In general terms: Loss of bound radioactivity is the signal in a displacement assay; it reports binding, not function.

Consider 28Pro-human-Amylin (peptide), for which the IC50 (as a rule, the concentration needed to halve the response being measured) came to 15 pM.

B1: 25,28,29Pro-h-Amylin (peptide)
peptide: KCNTATCATQRLANFLVHSSNNFGPILPPTNVGSNTY
modifications: 2,7-disulfide; made on methylbenzhydrylamine resin (C-terminal amide not spelled out)
In turn, B1 showed an IC50 of 10 pM.
